To fix the notation:
B1: BT061 variant LC master HC Y105W (antibody, V domains shown)
VH: EEQLVESGGGLVKPGGSLRLSCAASGFSFSDCRMYWLRQAPGKGLEWIGVISVKSENYGANYAESVRGRFTISRDDSKNTVYLQMNSLKTEDTAVYYCSASYYRWDVGAWFAYWGQGTLVTVSS
VL: DIVMTQSPDSLAVSLGERATINCRASKSVSTSGYSYIYWYQQKPGQPPKLLIYLASILESGVPDRFSGSGSGTDFTLTISSLQAEDVAVYYCQHSRELPWTFGQGTKVEIKR
notes: also called knockout mutant
B2: BT61 Lot 52690 (antibody, human IgG1, kappa, V domains shown)
VH: B1 VH with W105Y
VL: B1 VL
B3: LC A55G HC R33K (antibody, V domains shown)
VH: B1 VH with R33K, W105Y
VL: B1 VL with A55G
B4: LC master HC master (antibody, human IgG1, kappa, V domains shown)
VH: B1 VH with W105Y
VL: B1 VL
B5: LC L98I HC R33K (antibody, V domains shown)
VH: B1 VH with R33K, W105Y
VL: B1 VL with L98I
B6: LC master HC R33K (antibody, V domains shown)
VH: B1 VH with R33K, W105Y
VL: B1 VL
B7: LC master HC R33K-A63G (antibody, V domains shown)
VH: B1 VH with R33K, A63G, W105Y
VL: B1 VL
B8: LC master HC A63G (antibody, V domains shown)
VH: B1 VH with A63G, W105Y
VL: B1 VL
B9: LC master HC Y105W (antibody, V domains shown)
VH: B1 VH
VL: B1 VL
B10: HC master LC L98I (antibody, V domains shown)
VH: B1 VH with W105Y
VL: B1 VL with L98I
B11: LC master HC S101T (antibody, V domains shown)
VH: B1 VH with S101T, W105Y
VL: B1 VL
B12: LC G33A HC R33K (antibody, V domains shown)
VH: B1 VH with R33K, W105Y
VL: B1 VL with G33A

Substitutions are numbered along the chain they refer to. In names and notes the source's numbering stands.

One assay concerns the target T1, Human CD4 on CD4+CD25+ regulatory T cells (human, UniProt P01730 26-458).
T1 construct: CD4 on Tregs or T cells of healthy human donors
Nature of the assay: in vitro assay with CD4+CD25+ regulatory T cells (allogeneic mixed lymphocyte reaction); no separate binding assay described. How it is done: CD4+ CD25+ regulatory T cells were freshly isolated from a first donor (donor A). PBMCs were obtained from EDTA-blood by density gradient centrifugation. […] Tregs were pre-incubated with or without plate-bound antibody for 2 days. The number and phenotype of Tregs was determined by six colour flow cytometry as previously described (Haas et al., 2007). Pre-incubated Tregs were transferred to responder T cells (second donor B) in the presence of T-cell depleted and irradiated PBMCs (first donor A). After stimulation, [³H] thymidine was added and proliferation of responder T cells was measured after five days.
B1: the binding result is given as “no binding”.

Another assay concerns the target Human CD4 on CD4+CD25+ regulatory T cells of healthy donors (human, UniProt P01730 26-458). Kind of assay: cell-based or functional assay.
As for B2, the “% Inh1” value was 26.7%, the “% Inh2” value is 24.1%, the “% Inh3” value came out at 27.8% and the Avg. % inhibition stood at 26.2%.

As for B3, the “% Inh1” value stood at 12.1%, the “% Inh2” value is 6.4%, the “% Inh3” value stood at 19.3% and the Avg. % inhibition is 12.6%.

As to B4, the “% Inh2” value amounted to 25.4%, the “% Inh3” value is 25.9% and the Avg. % inhibition came out at 26.3%.

Regarding B5, the “% Inh1” value was determined as 9.2%, the “% Inh2” value came to 24.3%, the “% Inh3” value came to 24.6% and the Avg. % inhibition worked out at 19.4%.

With B6, the “% Inh1” value was 19.8%, the “% Inh2” value amounted to 18.8%, the “% Inh3” value came to 15% and the Avg. % inhibition was determined as 17.9%.

Consider B7, for which the “% Inh1” value was determined as 15.7%, the “% Inh2” value came to 21.5%, the “% Inh3” value stood at 21.9% and the Avg. % inhibition is 19.7%.

With B8, the “% Inh1” value is 33.1%, the “% Inh2” value amounted to 25.5%, the “% Inh3” value was found to be 19.5% and the Avg. % inhibition worked out at 26%.

Consider B9, for which the “% Inh1” value was 5.3%, the “% Inh2” value stood at 2%, the “% Inh3” value came out at 7% and the Avg. % inhibition is 4.8%.

As to B10, the “% Inh1” value came to 12.2%, the “% Inh2” value turned out to be 8.4%, the “% Inh3” value is 18.2% and the Avg. % inhibition came out at 12.9%.

With B11, the “% Inh1” value is 3.1%, the “% Inh2” value is -3.6%, the “% Inh3” value amounted to 0% and the Avg. % inhibition was -0.2%.

Consider B12, for which the “% Inh1” value was determined as 6.5%, the “% Inh2” value is 7.9%, the “% Inh3” value is 9% and the Avg. % inhibition stood at 7.8%.

The record behind these values is patent US20130004513A1 (published 2013).
